B1: unnamed (parent)
chain 1: ECPDRWRAEIDLGLPPGVQVGDLLRNEQTMGSLRQVYLLAVQANSITDHLKRFDAVRVPESCRGVVEAQVAKLEAVRSVIWNTMISLAVSGIEMDENGLKALLDKQAGDSLALMEMEKVATALKMD
chain 2: MQKVSLRVTPRLVLEVNRHNAICVATNVPEFYNARGDLNIRDLRAHVKARMISSQFCGYVLVSLLDSEDQVDHLNIFPHVFSERMILYKPNNVNLMEMCALLSMIENAKSPSIGLCREVLGRLTLLHSKCNNLDSLFLYNGARTLLSTLVKYHDLEEGAATPGPWNEGLSLFKLHKELKRAPSEARDLMQSLFLTSGKMGCLARSPKDYCADLNKEEDANSGFTFNLFYQDSLLTKHFQCQTVLQTLRRKCLGSDTVSKIIP

Variants of: B1
Assay: BLI
Details: with partner chain of the complex shown; 10 μg ml−1 His-tagged BBRF2Δ(F209K); BSRF1Δ at 500, 250, 125, 62.5, 31.3, 15.6 nM

Row | Variant | Kd
1 | chain 2 MQKVSLRVTPRLVLEVNRHNAICVATNVPEFYNARGDLNIRDLRAHVKARMISSQFCGYVLVSLLDSEDQVDHLNIFPHVFSERMILYKPNNVNLMEMCALLSMIENAKSPSIGLCREVLGRLTLLHSKCNNLDSLFLYNGARTLLSTLVKYHDLEEGAATPGPWNEGLSLFKLHKELKRAPSEARDLMQSLKLTSGKMGCLARSPKDYCADLNKEEDANSGFTFNLFYQDSLLTKHFQCQTVLQTLRRKCLGSDTVSKIIP [chain 2 F193K] | 53.9 nM

Same assay, conditions: with partner chain of the complex shown; 10 μg ml−1 His-tagged BBRF2Δ; BSRF1Δ(M63D) at 500, 250, 125, 62.5, 31.3, 15.6 nM

Row | Variant | Kd
2 | chain 1 ECPDRWRAEIDLGLPPGVQVGDLLRNEQTDGSLRQVYLLAVQANSITDHLKRFDAVRVPESCRGVVEAQVAKLEAVRSVIWNTMISLAVSGIEMDENGLKALLDKQAGDSLALMEMEKVATALKMD | 126 nM

Same assay, conditions: with partner chain of the complex shown; 10 μg ml−1 His-tagged BBRF2Δ; BSRF1Δ(N59K) at 500, 250, 125, 62.5, 31.3 nM

Row | Variant | Kd
3 | chain 1 ECPDRWRAEIDLGLPPGVQVGDLLRKEQTMGSLRQVYLLAVQANSITDHLKRFDAVRVPESCRGVVEAQVAKLEAVRSVIWNTMISLAVSGIEMDENGLKALLDKQAGDSLALMEMEKVATALKMD | 59.9 nM
